Laboratory results as given in patent US20250320312A1 (OXITOPE PHARMA B V, published 2025).
Positions count from the first letter of the chain named.

T1: Peptide 4: Biotin-AGGGGSGGGGSGGGGSAAA-Tyr-acid (N-terminal biotin; C-terminal acid)
T1 construct: control peptide without PC
T1 peptide: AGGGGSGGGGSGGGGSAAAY

T2: Peptide 8: Biotin-AEAAAKEAAAKEAAAKEAAAKAAA-Tyr-acid (N-terminal biotin; C-terminal acid)
T2 construct: control peptide without PC
T2 peptide: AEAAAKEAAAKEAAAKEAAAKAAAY

T3: Peptide 4: Biotin-AGGGGSGGGGSGGGGSAAA-Tyr-acid (N-terminal biotin; C-terminal acid)
T3 construct: Control peptide without PC
T3 peptide: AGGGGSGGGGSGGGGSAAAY

T4: Peptide 8: Biotin-AEAAAKEAAAKEAAAKEAAAKAAA-Tyr-acid (N-terminal biotin; C-terminal acid)
T4 construct: Control peptide without PC
T4 peptide: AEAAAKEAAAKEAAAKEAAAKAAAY

B1: PcOxP_DB03_G07 (scFv, V domains shown)
VH: EVQLLESGGGLVQPGGSLRLSCAASGFTFSDHYMEWVRQAPGKGLEWVAASRNKANDYTTEYADSVKGRFTISRDNSKNTLYLQMNSLRAEDTAVYYCARDYYGQSYWYFDVWGQGTLVTVSS
VL: DIQMTQSPSSLSASVGDRVTITCTASESLYSSKHKVHYLAWYQQKPGKAPKLLIYGASNRYIGVPSRFSGSGSGTDFTLTISSLQPEDFATYYCAQFYSYPLTFGGGTKVEIK
notes: scFv in periplasmic extract
B2: PcOxP_DB04_G05 (scFv, V domains shown)
VH: B1 VH with H32F, Y102F, Q105S
VL: DIVMTQSPDSLAVSLGERATINCTASESLYSSKHKVHYLAWYQQKPGQPPKLLIYGASNRYIGVPDRFSGSGSGTDFTLTISSLQAEDVAVYYCAQFYSYPLTFGGGTKVEIK
notes: scFv in periplasmic extract
B3: PcOxP_DB01_H08 (scFv, V domains shown)
VH: B1 VH with F29H, H32F, Q105S
VL: DIQMTQSPSSLSASVGDRVTITCRASESISSSKHKHYLAWYQQKPGKAPKLLIYGASNRYIGVPSRFSGSGSGTDFTLTISSLQPEDFATYYCAQFYVYPLTFGGGTKVEIK
notes: scFv in periplasmic extract
B4: PcOxP_DB02_H07 (scFv, V domains shown)
VH: B1 VH with D31S, H32Y, Q105S
VL: B2 VL with I62N, S99T
notes: scFv in periplasmic extract
B5: PcOxP_DB02_H08 (scFv, V domains shown)
VH: B1 VH with H32A, Q105S, S106H
VL: B2 VL with A25S, E27Q, K35N, V36K
notes: scFv in periplasmic extract
B6: PcOxP_DB02_G02 (scFv, V domains shown)
VH: B1 VH with T28G, H32F, Q105S
VL: B2 VL with I62S
notes: scFv in periplasmic extract
B7: PcOxP_DB03_A07 (scFv, V domains shown)
VH: B1 VH with T28H, H32F, Q105S
VL: B2 VL with S28N, I62S
notes: scFv in periplasmic extract
B8: PcOxP_DB02_F11 (scFv, V domains shown)
VH: B1 VH with F27T, H32F, A55Y, Q105S
VL: B2 VL with I62P
notes: scFv in periplasmic extract
B9: PcOxP_DB02_F09 (scFv, V domains shown)
VH: B1 VH with T28Q, H32F, A55G, D57S, E61A, Q105S
VL: B2 VL with I62S
notes: scFv in periplasmic extract
B10: PcOxP_DB02_F04 (scFv, V domains shown)
VH: B1 VH with F29G, H32F, K54S, A55G, D57S, E61A, Y103F, Q105S
VL: B2 VL
notes: scFv in periplasmic extract
B11: PcOxP_DB03_A04 (scFv, V domains shown)
VH: B1 VH with F27D, H32F, T59S, Q105S
VL: B2 VL with T24E
notes: scFv in periplasmic extract
B12: PcOxP_DB02_G05 (scFv, V domains shown)
VH: B1 VH with H32F, Q105S, Y107H
VL: B2 VL with V36L, A95G
notes: scFv in periplasmic extract
B13: PcOxP_DB02_F06 (scFv, V domains shown)
VH: B1 VH with H32E, Y58F, Y102F, Q105S
VL: B2 VL with L29I
notes: scFv in periplasmic extract
B14: PcOxP_DB02_H05 (scFv, V domains shown)
VH: B1 VH with H32F, Q105S, V112P
VL: B2 VL with I62L
notes: scFv in periplasmic extract
B15: PcOxP_DB03_B01 (scFv, V domains shown)
VH: B1 VH with D31S, H32Y, K54T, Q105S
VL: B2 VL with Y61E
notes: scFv in periplasmic extract
B16: PcOxP_DB02_E12 (scFv, V domains shown)
VH: B1 VH with T28G, H32F, Q105S
VL: B2 VL with Q96E
notes: scFv in periplasmic extract
B17: PcOxP_DB02_H06 (scFv, V domains shown)
VH: B1 VH with H32Q, Q105S
VL: B2 VL with A25S, H34N, H37N, S99F
notes: scFv in periplasmic extract
B18: PcOxP_DB03_B06 (scFv, V domains shown)
VH: B1 VH with F27I, H32F, A55Y, Q105S
VL: B2 VL with I62T
notes: scFv in periplasmic extract
B19: PcOxP_DB02_H09 (scFv, V domains shown)
VH: B1 VH with D31S, H32Y, T60Y, G104E, Q105S
VL: B2 VL
notes: scFv in periplasmic extract
B20: PcOxP_DB03_A06 (scFv, V domains shown)
VH: B1 VH with D31S, H32Y, N53S, Q105S, S106Q
VL: B2 VL with S32N
notes: scFv in periplasmic extract
B21: PcOxP_DB03_A12 (scFv, V domains shown)
VH: B1 VH with H32G, E61A, Q105S
VL: B2 VL with A95G
notes: scFv in periplasmic extract
B22: PcOxP_DB03_B03 (scFv, V domains shown)
VH: B1 VH with H32G, Q105S
VL: B2 VL with S99V
notes: scFv in periplasmic extract
B23: PcOxP_DB03_B07 (scFv, V domains shown)
VH: B1 VH with T28G, H32F, G104S, Q105S
VL: B2 VL
notes: scFv in periplasmic extract
B24: PcOxP_DB03_A05 (scFv, V domains shown)
VH: B1 VH with D31E, H32F, Q105S
VL: B2 VL with Y61A, S99F
notes: scFv in periplasmic extract
B25: PcOxP_DB02_F10 (scFv, V domains shown)
VH: B1 VH with H32Q, Q105S
VL: B2 VL with A25S, E27Q, L29V, Y30L, K35N, V36K, H37N, I62W
notes: scFv in periplasmic extract
B26: PcOxP_DB02_G04 (scFv, V domains shown)
VH: B1 VH with H32Y, N53W, Q105S
VL: B2 VL with T24K, E27Q, L29V, Y30L, S31Y, H34N, V36K, Y61Q, S99V
notes: scFv in periplasmic extract
B27: PcOxP_DB03_A10 (scFv, V domains shown)
VH: B1 VH with F27W, H32F, Q105S
VL: B2 VL with N59Q, S99L
notes: scFv in periplasmic extract
B28: PcOxP_DB03_B08 (scFv, V domains shown)
VH: B1 VH with H32Y, Q105S
VL: B2 VL with Q96N
notes: scFv in periplasmic extract
B29: PcOxP_DB02_H04 (scFv, V domains shown)
VH: B1 VH with H32E, Q105S
VL: B2 VL with H37V, S99F
notes: scFv in periplasmic extract

target: BSA (UniProt P02769); assay: scFv ELISA
Sequence (P02769 25-607 limits assumed): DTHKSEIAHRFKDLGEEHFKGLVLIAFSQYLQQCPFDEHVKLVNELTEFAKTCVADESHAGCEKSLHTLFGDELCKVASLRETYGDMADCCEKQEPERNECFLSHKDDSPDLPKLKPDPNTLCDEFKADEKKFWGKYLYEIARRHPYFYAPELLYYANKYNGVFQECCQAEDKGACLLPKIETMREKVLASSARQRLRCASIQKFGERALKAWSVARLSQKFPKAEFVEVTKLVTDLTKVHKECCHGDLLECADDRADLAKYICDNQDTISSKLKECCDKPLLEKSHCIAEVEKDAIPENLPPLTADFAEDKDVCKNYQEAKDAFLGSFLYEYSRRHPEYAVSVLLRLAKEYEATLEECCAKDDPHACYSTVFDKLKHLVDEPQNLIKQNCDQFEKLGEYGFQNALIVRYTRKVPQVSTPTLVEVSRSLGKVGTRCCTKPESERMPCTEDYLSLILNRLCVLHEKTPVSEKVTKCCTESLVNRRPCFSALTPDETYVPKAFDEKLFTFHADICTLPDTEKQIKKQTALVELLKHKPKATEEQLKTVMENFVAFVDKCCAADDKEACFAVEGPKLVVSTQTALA

OD450 [OD450] | Binder
0.1 | B1
0.07 | B2
0.09 | B3
0.07 | B4
0.07 | B5
0.06 | B6
0.06 | B7
0.08 | B8
0.08 | B9
0.09 | B10
0.06 | B11
0.11 | B12
0.06 | B13
0.09 | B14
0.06 | B15
0.06 | B16
0.07 | B17
0.06 | B18
0.07 | B19
0.08 | B20
0.07 | B21
0.07 | B22
0.12 | B23
0.06 | B24
0.09 | B25
0.11 | B26
0.06 | B27
0.07 | B28
0.06 | B29

target: Peptide 1: Biotin-…-[Tyr(PC)]-acid; assay: scFv ELISA

OD450 [OD450] | Binder
2.18 | B1
1.2 | B2
0.56 | B3
0.56 | B4
0.4 | B5
1.01 | B6
0.94 | B7
0.23 | B8
0.39 | B9
0.47 | B10
0.19 | B11
1.49 | B12
0.16 | B13
0.2 | B14
0.21 | B15
0.26 | B16
0.92 | B17
0.68 | B18
0.25 | B19
0.99 | B20
2.28 | B21
1.12 | B22
0.66 | B23
0.93 | B24
0.51 | B25
0.32 | B26
0.6 | B27
2.63 | B28
0.22 | B29

target: Peptide 5: Biotin-…-[Tyr(PC)]-acid; assay: scFv ELISA

OD450 [OD450] | Binder
1.67 | B1
1.67 | B2
0.85 | B3
0.88 | B4
1.34 | B5
1.13 | B6
1.01 | B7
0.66 | B8
0.93 | B9
0.74 | B10
0.47 | B11
1.8 | B12
0.45 | B13
0.44 | B14
0.64 | B15
0.58 | B16
1.04 | B17
1.01 | B18
0.58 | B19
1.07 | B20
1.67 | B21
1.1 | B22
0.81 | B23
0.78 | B24
1.2 | B25
0.7 | B26
0.54 | B27
1.95 | B28
0.2 | B29

Target: T1, Peptide 4: …
Assay: scFv ELISA
Method in brief: (§1)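 Bound scFv was read as OD450 after HRP–anti-V5 detection, TMB development and HCl stop. PPE with BSA was incubated 1 h at RT on BSA-blocked wells coated overnight at 4° C. with peptide, or on streptavidin wells loaded 1 h with biotinylated PC-peptides at 1 μg/mL.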

OD450 [OD450] | Binder
0.06 | B1
0.06 | B3

Target: T2, Peptide 8: …
Assay: scFv ELISA
Method in brief: as §1

OD450 [OD450] | Binder
0.05 | B1
0.06 | B3

Target: T3, Peptide 4: …
Assay: scFv ELISA
Method in brief: as §1

OD450 [OD450] | Binder
0.05 | B2
0.04 | B4
0.04 | B5
0.04 | B6
0.04 | B7
0.04 | B8
0.04 | B9
0.04 | B10
0.04 | B11
0.05 | B12
0.04 | B13
0.04 | B14
0.04 | B15
0.05 | B16
0.05 | B17
0.04 | B18
0.04 | B19
0.05 | B20
0.06 | B21
0.04 | B22
0.06 | B23
0.04 | B24
0.05 | B25
0.05 | B26
0.04 | B27
0.05 | B28
0.05 | B29

Target: T4, Peptide 8: …
Assay: scFv ELISA
Method in brief: as §1

OD450 [OD450] | Binder
0.05 | B2
0.05 | B4
0.06 | B5
0.04 | B6
0.04 | B7
0.04 | B8
0.04 | B9
0.05 | B10
0.04 | B11
0.07 | B12
0.04 | B13
0.04 | B14
0.04 | B15
0.06 | B16
0.05 | B17
0.05 | B18
0.04 | B19
0.05 | B20
0.05 | B21
0.04 | B22
0.05 | B23
0.04 | B24
0.04 | B25
0.05 | B26
0.04 | B27
0.04 | B28
0.04 | B29
